Experimental data published in paper doi:10.1101/2024.02.14.580117.
Where two headings read alike, the source gives them in different places.

B1: miR-34a guide / WNT1 target (dsRNA)
RNA 1: UGGCAGUGUCUUAGCUGGUUGU
RNA 2: GGAGACCCCUUGUUGCACUGCCC
modifications: 5' phosphate on guide
B2: miR-34a guide / PERFECT target (dsRNA)
RNA 1: UGGCAGUGUCUUAGCUGGUUGU
RNA 2: ACAACCAGCUAAGACACUGCCA
modifications: 5' phosphate on guide
B3: miR-34a guide / SIRT1 target (dsRNA)
RNA 1: UGGCAGUGUCUUAGCUGGUUGU
RNA 2: ACACCCAGCUAGGACCAUUACUGCCA
modifications: 5' phosphate on guide
B4: miR-34a guide / NOTCH2 target (dsRNA)
RNA 1: UGGCAGUGUCUUAGCUGGUUGU
RNA 2: UCAGUGAUGAGGAGGACAACACUGCCU
modifications: 5' phosphate on guide
B5: miR-34a guide / DLL1 target (dsRNA)
RNA 1: UGGCAGUGUCUUAGCUGGUUGU
RNA 2: CCGGCCGCCUGCGGCACUGCCU
modifications: 5' phosphate on guide
B6: miR-34a guide / PNUTS target (dsRNA)
RNA 1: UGGCAGUGUCUUAGCUGGUUGU
RNA 2: AAAGUCACACUACAUGCACUGCCU
modifications: 5' phosphate on guide
B7: miR-34a guide / CDK6 target (dsRNA)
RNA 1: UGGCAGUGUCUUAGCUGGUUGU
RNA 2: UACUUUCUGCCACACACUGCCU
modifications: 5' phosphate on guide
B8: miR-34a guide / NOTCH1 target (dsRNA)
RNA 1: UGGCAGUGUCUUAGCUGGUUGU
RNA 2: ACUUUUAUUUUACACAGAAACACUGCCU
modifications: 5' phosphate on guide
B9: miR-34a guide / SCRseed target (dsRNA)
RNA 1: UGGCAGUGUCUUAGCUGGUUGU
RNA 2: ACAACCAGCUAUCACACACGGA
modifications: 5' phosphate on guide
B10: miR-34a guide / MTA2 target (dsRNA)
RNA 1: UGGCAGUGUCUUAGCUGGUUGU
RNA 2: GGUACCUGGUUGGGGGAGGGGGGCGUGCACUGCCA
modifications: 5' phosphate on guide
B11: miR-34a guide / HNF4a target (dsRNA)
RNA 1: UGGCAGUGUCUUAGCUGGUUGU
RNA 2: AGGGCCACAUCCCACUGCCA
modifications: 5' phosphate on guide
B12: miR-34a guide / BCL2 target (dsRNA)
RNA 1: UGGCAGUGUCUUAGCUGGUUGU
RNA 2: UCGAAUCAGCUAUUUACUGCCA
modifications: 5' phosphate on guide

What was measured:
Experiment in all cases: EMSA
[1] = molecular target: T1, Argonaute 2 (AGO2), loaded with miR-34a (Homo sapiens, UniProt Q9UKV8 1-859)
[2] = molecular target: T1, Argonaute 2 (AGO2), loaded with miR-34a; remark: listed apart in the source
[3] = molecular target: T1, Argonaute 2 (AGO2), loaded with miR-34a; remark: listed apart in the source
[4] = molecular target: T1, Argonaute 2 (AGO2), loaded with miR-34a; remark: listed apart in the source
[5] = molecular target: T1, Argonaute 2 (AGO2), loaded with miR-34a; remark: listed apart in the source

T1 sequence (Q9UKV8 whole entry): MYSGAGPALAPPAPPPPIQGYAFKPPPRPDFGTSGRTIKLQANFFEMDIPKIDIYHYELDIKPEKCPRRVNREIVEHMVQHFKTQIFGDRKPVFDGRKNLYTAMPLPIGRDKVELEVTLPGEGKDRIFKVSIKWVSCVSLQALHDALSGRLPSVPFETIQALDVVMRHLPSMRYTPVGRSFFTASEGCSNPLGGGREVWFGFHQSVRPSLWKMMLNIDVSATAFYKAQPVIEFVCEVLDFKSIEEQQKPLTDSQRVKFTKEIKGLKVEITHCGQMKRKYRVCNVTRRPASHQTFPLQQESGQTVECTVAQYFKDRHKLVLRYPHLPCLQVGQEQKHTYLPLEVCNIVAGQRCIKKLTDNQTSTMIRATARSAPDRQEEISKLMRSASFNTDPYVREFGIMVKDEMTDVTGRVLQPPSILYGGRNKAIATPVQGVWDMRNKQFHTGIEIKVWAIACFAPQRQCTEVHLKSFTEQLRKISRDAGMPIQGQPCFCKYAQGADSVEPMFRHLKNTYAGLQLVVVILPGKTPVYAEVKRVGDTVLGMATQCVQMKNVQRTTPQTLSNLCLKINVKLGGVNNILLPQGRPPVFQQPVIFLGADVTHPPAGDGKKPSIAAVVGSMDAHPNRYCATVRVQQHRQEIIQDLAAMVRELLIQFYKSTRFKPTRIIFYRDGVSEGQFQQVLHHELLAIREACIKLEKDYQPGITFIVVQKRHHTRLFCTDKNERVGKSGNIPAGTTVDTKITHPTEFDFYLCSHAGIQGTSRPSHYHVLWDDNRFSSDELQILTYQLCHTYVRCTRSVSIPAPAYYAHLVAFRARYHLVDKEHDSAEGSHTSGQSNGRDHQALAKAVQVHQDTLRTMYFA

| Binder | Kd [2] [nM] | also measured |
| --- | --- | --- |
| B1 | – | binding result [1]: binds |
| B2 | 1.03 ± 0.46 | – |
| B3 | – | Kd [3]: 2.68 ± 0.3 nM |
| B4 | – | Kd [4]: 496 ± 129 nM |
| B5 | 69.2 ± 14.1 | – |
| B6 | 14.5 ± 2.9 | – |
| B7 | 26.9 ± 1.4 | – |
| B8 | – | binding result [1]: binds |
| B9 | – | binding result [5]: binds |
| B10 | 66.1 ± 11.2 | – |
| B11 | 38.9 | – |
| B12 | 8.92 | – |
